Measured values as given in publication PMC4549619, “Engineering catechol 1, 2-dioxygenase by design for improving the performance of the cis, cis-muconic acid synthetic pathway in Escherichia coli” (Scientific Reports, 2015).

Assays:
[1] = test system: Oc1ccccc1O; assay: initial rates, OD260 product formation, Michaelis-Menten nonlinear fit; assay type: biochemical, Acinetobacter baylyi; details: 100 mM potassium phosphate pH 7.4, 25 °C, catechol 0-200 μM
From the text: (§1) initial rates, OD260 product formation, Michaelis-Menten nonlinear fit on catechol 1,2-dioxygenase (CatA)

[2] = substrate: Oc1ccccc1O; assay: as above; assay type: biochemical, Acinetobacter baylyi; details: 100 mM potassium phosphate pH 7.4, 25 °C, catechol 0-200 μM; remark: listed apart in the source
From the text: as §1

## catechol 1,2-dioxygenase (CatA) (Acinetobacter baylyi ADP1; L73F/P76A)
[1]
  Km: 45.96 ± 7.691 µM
  kcat: 39.5 ± 0.221 s⁻¹

## catechol 1,2-dioxygenase (CatA) (Acinetobacter baylyi ADP1; P76A)
[1]
  Km: 65.91 ± 7.753 µM
  kcat: 46.56 ± 0.201 s⁻¹

## catechol 1,2-dioxygenase (CatA) (Acinetobacter baylyi ADP1; L73F)
[1]
  Km: 151.09 ± 10.299 µM
  kcat: 5.65 ± 0.163 s⁻¹

B1: catechol 1,2-dioxygenase (CatA) (Acinetobacter baylyi ADP1) (protein)
chain: MEVKIFNTQDVQDFLRVASGLEQEGGNPRVKQIIHRVLSDLYKAIEDLNITSDEYWAGVAYLNQLGANQEAGLLSPGLGFDHYLDMRMDAEDAALGIENATPRTIEGPLYVAGAPESVGYARMDDGSDPNGHTLILHGTIFDADGKPLPNAKVEIWHANTKGFYSHFDPTGEQQAFNMRRSIITDENGQYRVRTILPAGYGCPPEGPTQQLLNQLGRHGNRPAHIHYFVSADGHRKLTTQINVAGDPYTYDDFAYATREGLVVDAVEHTDPEAIKANDVEGPFAEMVFDLKLTRLVDGVDNQVVDRPRLAV
[2]
  Km: 7.88 ± 1.239 µM
  kcat: 7.86 ± 0.248 s⁻¹
